Values joined by “and” are separate entries in the source; they are usually repeats but may differ in a detail not shown here. Equal values may be shown once.
What was measured:
[1] = target: T1, LILRB2-mFc(NCBI号:AAH36827，22-461氨基酸) (UniProt Q8N423 22-461); experiment: blocking ELISA: LILRB2-mFc binding to coated HLA-G
T1 construct: range 22-461; also called 重组LILRB2; not shown: mouse Fc (mFc)

[2] = target: T2, LILRB2重组蛋白(购于ACRO，Cat# LI2-H5220) (UniProt Q8N423 22-461); experiment: BLI (Octet QKe), antibody captured on AHC probe, LILRB2 as analyte, 1:1 fit
T2 construct: Bought reagent; Used as analyte at '60nm' in BLI

IC50 [1]: 0.86 nM and 1 nM
Kd [2]: 4.93 nM
koff [2]: 0.00211 s⁻¹
kon [2]: 428000 M⁻¹ s⁻¹
B1: JTX-8064 (antibody, V domains shown)
VH: QITLKESGPTLVKPTQTLTLTCTFSGFSLNTYAMGVSWIRQPPGKALEWLASIWWNGNKYNNPSLKSRLTVTKDTSKNQVVLTMTNMDPVDTATYYCAHSRIIRFTDYVMDAWGQGTLVTVSS
VL: DIQMTQSPSSLSTSVGDRVTITCRASEDIYNDLAWYQQKPGKAPKLLIYNANSLHTGVASRFSGSGSGTDFTFTISSLQPEDVATYFCQQYYDYPLTFGQGTKLEIK
notes: expressed in HEK293, Protein A purified; also called 对照抗体

From patent CN114805568A (BEIJING KENUO XINCHENG TECH CO LTD, dated 2022)
